Measurements published in patent US20090298083.

What was measured:
FLAG-Pax3 = FLAG-Pax3 (UniProt P23760); test: cell_activity; details: CAT assay, proliferating mouse primary myoblasts; activity completely lost after 12 h differentiation
FLAG-Pax3-FOXO1 fusion = test: cell_activity; details: CAT assay, proliferating mouse primary myoblasts; no significant change during differentiation
[1] = biological target: GST-Pax3 phosphorylated at Ser205 by CKII (UniProt P23760); test: EMSA; details: Pax3 phosphorylated at Ser205 by CKII; reference for maximal binding; nearly 10-fold more binding than unphosphorylated
Sequence of GST-Pax3 phosphorylated at Ser205 by CKII (P23760 other isoform, or with tags, fused parts or gaps): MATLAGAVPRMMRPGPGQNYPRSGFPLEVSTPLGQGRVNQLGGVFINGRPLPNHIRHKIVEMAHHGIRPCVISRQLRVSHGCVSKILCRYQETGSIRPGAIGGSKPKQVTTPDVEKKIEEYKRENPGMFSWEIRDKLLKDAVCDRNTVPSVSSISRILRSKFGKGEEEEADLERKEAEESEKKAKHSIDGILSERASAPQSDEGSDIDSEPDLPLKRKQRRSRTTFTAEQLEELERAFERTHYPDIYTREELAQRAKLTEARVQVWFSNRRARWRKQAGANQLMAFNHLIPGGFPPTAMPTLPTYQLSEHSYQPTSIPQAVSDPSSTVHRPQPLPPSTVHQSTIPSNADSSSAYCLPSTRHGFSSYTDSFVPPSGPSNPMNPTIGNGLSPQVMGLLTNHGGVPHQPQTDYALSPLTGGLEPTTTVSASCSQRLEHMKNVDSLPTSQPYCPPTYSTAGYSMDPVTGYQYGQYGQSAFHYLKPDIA

[2] = biological target: GST-Pax3 non-phosphorylated (UniProt P23760); test: EMSA; details: unphosphorylated; value inferred from nearly 10-fold increase on CKII phosphorylation
Sequence of GST-Pax3 non-phosphorylated (P23760 other isoform, or with tags, fused parts or gaps): as above

Sequence of FLAG-Pax3 (P23760 other isoform, or with tags, fused parts or gaps): as above

Substance “(PRS-9)TK-CAT reporter, six tandem repeats of Pax3 paired and homeodomain recognition sequence” has an activity (fold over background) (FLAG-Pax3) of 2 and an activity (fold over background) (FLAG-Pax3-FOXO1 fusion) of 4.
With “oligonucleotide with paired- and homeodomain recognition sequences” the binding signal [1] was 100% and the binding signal [2] was 10%.
